Results from article PMC10366546.
“And” between values parts separate entries of the source, which are not always exact repeats. Equal values may be shown once.

Molecular target: Ostreolysin A6 (Pleurotus ostreatus)
Assay: high-speed atomic force microscopy; OlyA6 added (final around 0.35 uM, 5.8 ug/ml) to a d17:1/12:0-CPE/Chol (1:1) supported lipid bilayer on mica, PBS 10 mM pH 7.5, room temperature; self-assembly on the membrane

Q: Which stoichiometry N does the source give for Ostreolysin A6 (natural protein) here?
A: 6 and 2
